Our source for the % of cells in the quadrant PE isotype positive, APC isotype negative, EC50 and fold weaker EC50 than TIM3.18 binding to human TIM-3 values is US20240209083A1.

Test [1] addresses human TIM3 (isoform 1), membrane bound (human) (UniProt Q8TDQ0). In words: flow cytometry, lung cancer TILs, CD8+ cells (lower panel), isotype staining. A general note: Flow cytometry measures light scatter and fluorescence of single cells or particles in a stream.
For test [2] the target is unchanged. In words: flow cytometry, lung cancer TILs, CD4+ cells (upper panel), isotype staining.
Test [3] concerns the target mouse TIM3 (mouse) (UniProt Q8VIM0). In words: binding to activated mouse T cells (method not given).

For orientation: EC50 means the concentration giving half of the maximal effect. Lower therefore signals greater potency.

Sequence of mouse TIM3 (mouse) (Q8VIM0 20-281): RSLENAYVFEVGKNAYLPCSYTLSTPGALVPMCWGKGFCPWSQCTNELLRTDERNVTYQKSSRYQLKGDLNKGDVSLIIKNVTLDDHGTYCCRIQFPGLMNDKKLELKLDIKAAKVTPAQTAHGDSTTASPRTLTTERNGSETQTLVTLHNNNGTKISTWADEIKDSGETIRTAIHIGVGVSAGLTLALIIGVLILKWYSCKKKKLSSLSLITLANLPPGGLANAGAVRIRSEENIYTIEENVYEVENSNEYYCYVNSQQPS

As to “Isotype (Comp-PE-A :: Isotype) (antibody)”, the % of cells in the quadrant PE isotype positive, APC isotype negative in test [1] worked out at 3.09%; in test [2] it was 2.94%.
In test [3], rat anti-mouse TIM-3 antibody RMT3-23 displayed an EC50 of 1.7 nM and a fold weaker EC50 than TIM3.18 binding to human TIM-3 of 17 fold.
